Measurements as given in paper PMC8933513 (2022).
Substitutions are numbered along the chain they refer to.

Tests used:
Experiment in all cases: SPR
[1] = target: T1, pAPN ectodomain W424A mutant (pig, UniProt P15145 58-961, W424A)
T1 sequence: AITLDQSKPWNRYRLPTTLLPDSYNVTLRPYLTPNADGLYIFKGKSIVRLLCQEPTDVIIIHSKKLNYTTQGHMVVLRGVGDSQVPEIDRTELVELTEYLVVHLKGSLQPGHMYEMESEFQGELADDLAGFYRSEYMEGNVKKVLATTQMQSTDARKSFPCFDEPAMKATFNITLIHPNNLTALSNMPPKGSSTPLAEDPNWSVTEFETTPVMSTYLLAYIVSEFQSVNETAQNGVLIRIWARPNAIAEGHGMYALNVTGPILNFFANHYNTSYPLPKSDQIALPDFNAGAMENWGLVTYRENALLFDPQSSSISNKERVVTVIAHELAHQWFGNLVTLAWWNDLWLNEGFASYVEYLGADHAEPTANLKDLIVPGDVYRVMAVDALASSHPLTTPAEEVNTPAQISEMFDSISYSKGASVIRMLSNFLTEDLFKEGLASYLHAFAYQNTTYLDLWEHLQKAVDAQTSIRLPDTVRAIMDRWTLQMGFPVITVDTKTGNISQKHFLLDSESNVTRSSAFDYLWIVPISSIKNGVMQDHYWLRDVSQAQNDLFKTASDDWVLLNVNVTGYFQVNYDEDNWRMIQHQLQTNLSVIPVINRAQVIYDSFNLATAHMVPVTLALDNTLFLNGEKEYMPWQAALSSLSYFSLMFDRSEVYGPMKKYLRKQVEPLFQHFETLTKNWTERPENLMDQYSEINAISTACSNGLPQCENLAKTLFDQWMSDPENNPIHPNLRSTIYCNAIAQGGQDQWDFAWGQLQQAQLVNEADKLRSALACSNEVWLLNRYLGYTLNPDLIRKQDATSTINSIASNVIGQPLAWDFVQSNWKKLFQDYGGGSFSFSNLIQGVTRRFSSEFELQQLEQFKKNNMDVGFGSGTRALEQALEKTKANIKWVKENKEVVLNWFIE

[2] = target: hAPN ectodomain W429A mutant (human, UniProt P15144 62-963, W429A)
[3] = target: T2, porcine aminopeptidase N (pAPN) ectodomain, residues 58-961, wild type (pig, UniProt P15145 58-961)
T2 chain: T1 sequence with A367W

[4] = target: hAPN ectodomain E426A mutant (human, UniProt P15144 62-963, E426A)
[5] = target: hAPN ectodomain Y316A mutant (human, UniProt P15144 62-963, Y316A)
[6] = target: T3, pAPN ectodomain E421A mutant (pig, UniProt P15145 58-961, E421A)
T3 sequence: T1 sequence with E364A, A367W

Chain of hAPN ectodomain W429A mutant (P15144 62-963 W429A): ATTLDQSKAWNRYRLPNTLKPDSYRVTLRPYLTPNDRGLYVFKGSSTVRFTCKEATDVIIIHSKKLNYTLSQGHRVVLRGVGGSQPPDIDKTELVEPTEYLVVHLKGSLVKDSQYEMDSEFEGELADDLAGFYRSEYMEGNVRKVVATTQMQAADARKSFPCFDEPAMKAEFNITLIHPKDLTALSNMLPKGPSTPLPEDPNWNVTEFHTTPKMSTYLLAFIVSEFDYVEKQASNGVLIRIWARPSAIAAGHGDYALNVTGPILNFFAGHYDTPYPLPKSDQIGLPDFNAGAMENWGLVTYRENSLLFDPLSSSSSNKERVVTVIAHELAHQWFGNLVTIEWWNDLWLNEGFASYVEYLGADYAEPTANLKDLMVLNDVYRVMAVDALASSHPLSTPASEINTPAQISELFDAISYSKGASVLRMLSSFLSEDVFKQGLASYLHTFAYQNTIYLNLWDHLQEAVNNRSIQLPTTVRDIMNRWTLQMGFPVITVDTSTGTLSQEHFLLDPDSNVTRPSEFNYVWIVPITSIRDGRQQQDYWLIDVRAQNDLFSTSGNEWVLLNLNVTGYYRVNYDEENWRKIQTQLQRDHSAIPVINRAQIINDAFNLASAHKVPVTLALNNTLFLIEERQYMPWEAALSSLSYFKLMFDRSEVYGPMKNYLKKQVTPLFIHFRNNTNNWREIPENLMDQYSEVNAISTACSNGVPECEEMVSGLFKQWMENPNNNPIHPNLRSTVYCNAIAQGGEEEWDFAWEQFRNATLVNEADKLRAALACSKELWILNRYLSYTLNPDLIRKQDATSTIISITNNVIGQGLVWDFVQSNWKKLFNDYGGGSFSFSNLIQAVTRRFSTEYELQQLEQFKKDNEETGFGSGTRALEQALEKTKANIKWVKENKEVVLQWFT
Chain of hAPN ectodomain Y316A mutant (P15144 62-963 Y316A): as the sequence (P15144 62-963 W429A) above, with Y255A, A368W counted along it

B1: PDCoV spike (S) protein receptor binding domain (RBD), residues 300-419, wild type (domain or fragment)
chain: PKLPELEVVQLNISAHMDFGEARLDSVTINGNTSYCVTKPYFRLETNFMCTGCTMNLRTDTCSFDLSAVNNGMSFSQFCLSTESGACEMKIIVTYVWNYLLRQRLYVTAVEGQTHTGTTS
For B1, the Kd [1] was 116 µM, the Kd [2] was 127 µM and the Kd [3] was 44.2 µM. For the same binder, the Kd [4] was 334 µM, the Kd [5] was 37.1 µM and the Kd [6] was 125 µM.
